Results: PMC2757176

Target: PLC-γ1 (UniProt Q62077)
Experiment: IP of PLC-γ1, blot for EAT-2
Details: reference: wild type EGFP-EAT-2; sites Y120,Y127

binding against the reference: lost
Substance: EAT-2 (from UniProt O35324) Y120F + Y127F double mutant (FF)
